This test deals with GAL4 activation domain-E2F-1 hybrid protein (GAD.E2F-1) (human). The test can be described thus: cell-based or functional assay.

In patent US20020103121A1 one finds activity in the yeast two-hybrid assay relative to wild-type DP-1 (% reduction relative to wild-type DP-1) and response of the E2F binding site reporter in yeast data, which are given here for 1 substance.

In turn, “LexA-DP-1^172/173 hybrid protein (pLEX-DP-1/MT) (from UniProt Q08639 1-410)” came in with an activity in the yeast two-hybrid assay relative to wild-type DP-1 (% reduction relative to wild-type DP-1) of 50 and a response of the E2F binding site reporter in yeast of 50 % reduction.
